Values quoted from earlier work in paper PMC11533685.

Tests used:
[1] = target: CD200R ECD (UniProt Q8TD46); assay: SPR
[2] = target: CD58 ECD (Homo sapiens) (UniProt P19256); assay: SPR
Chain of UniProt P19256 (P19256 29-215): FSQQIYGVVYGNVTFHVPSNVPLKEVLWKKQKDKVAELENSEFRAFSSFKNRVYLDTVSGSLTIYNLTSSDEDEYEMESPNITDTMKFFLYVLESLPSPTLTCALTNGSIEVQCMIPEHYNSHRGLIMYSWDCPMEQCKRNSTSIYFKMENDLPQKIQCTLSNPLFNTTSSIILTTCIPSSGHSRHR

Chain of UniProt Q8TD46 (Q8TD46 25-265): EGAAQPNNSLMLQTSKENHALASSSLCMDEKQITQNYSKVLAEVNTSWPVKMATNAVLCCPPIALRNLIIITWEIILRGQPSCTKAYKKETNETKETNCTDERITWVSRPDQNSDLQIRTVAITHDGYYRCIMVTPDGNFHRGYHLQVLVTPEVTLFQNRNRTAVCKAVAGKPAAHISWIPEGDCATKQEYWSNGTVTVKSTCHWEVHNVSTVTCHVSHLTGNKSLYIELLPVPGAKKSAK

CD200 ECD (from UniProt P41217)
Kd [1]: 1 µM

CD2 ECD (from UniProt P06729)
Kd [2]: 10 µM
